As usually defined, the stoichiometry N is a count of units in the complex or per binding partner.

The target in this assay is Bcl-xL∆L∆CT (C-terminal and loop-truncated Bcl-xL). The assay can be described thus: SAXS; purified OM-induced Bcl-xL dimer, 1 mg/ml and 3 mg/ml, 15 °C; mass from forward scattering against lysozyme.

Regarding “Bcl-xL∆L∆CT (C-terminal and loop-truncated Bcl-xL) (domain or fragment)”, the stoichiometry N is 2.

The record behind these values is publication PMC4448555.
